The supplement of paper PMC7125110
± gives the standard error. Fewer inactive variants are shown than the library holds.

B1: glmS ribozyme (parent)
chain: AUAAAAGCGCCAGAACUACAGAAAUGUAGUUGACGAGGAGGAGGUUUAUCGAAUUUUCGGCGGAUGCCUCCAAA

Variants of: B1
Assay: self-cleavage kobs at 2500 uM GlcN6P; higher = faster cleavage; RNA array
Conditions: with glucosamine-6-phosphate
Summary of the method: (§1)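 Barcoded ribozyme variants were transcribed in situ on sequenced MiSeq chips by E. coli RNA polymerase. At 37 °C, a hybridised Cy3 probe tracked them while glucosamine-6-phosphate (40 μM to 10 mM) in HEPES/KCl/Mg(OAc)2 buffer flowed in and tiles were imaged over ~14 h. Per-tile medians of signals normalised to baseline and to non-cleaving reference variants were fit to one- or two-exponential decays, giving kobs. kcat and KM came from weighted Michaelis–Menten fits across concentrations.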

Going from A14G G38A G40A to U54G C68U C70U, the “self-cleavage kobs at 2500 uM GlcN6P” value rises from under 1e-05 s⁻¹ to 0.00037 ± 6.8e-05 s⁻¹.

Compared with A39C U56C U65G, G40U A48G C68U is lower in “self-cleavage kobs at 2500 uM GlcN6P” value: 8.8e-05 ± 1.3e-05 s⁻¹ for the first, under 1e-05 s⁻¹ for the second.

Going from G13U A15U U30G G59C to G40C U54G G66A, the “self-cleavage kobs at 2500 uM GlcN6P” value rises from under 1e-05 s⁻¹ to 0.00142 ± 0.00027 s⁻¹.

Compared with G13U U45A A52G, C34A A39U C50G C67G is 6.6-fold higher in “self-cleavage kobs at 2500 uM GlcN6P” value: 5.37e-05 ± 2.1e-05 s⁻¹ for the first, 0.000353 ± 6.7e-05 s⁻¹ for the second.

First: C34U G44U U49C G59A C61A
Second: A52C U69G
The “self-cleavage kobs at 2500 uM GlcN6P” value of the first is lower: under 1e-05 s⁻¹ for the first, 9.19e-05 ± 4.2e-05 s⁻¹ for the second.

C8U A15U G32U U46C and A6C A48U C61U C70G cannot be ordered by “self-cleavage kobs at 2500 uM GlcN6P” value: under 1e-05 s⁻¹ for the first, under 1e-05 s⁻¹ for the second.

A6C C11U G21U G32C G41U G43U U65G C68U U69G and G40A C61G G66C C67A cannot be ordered by “self-cleavage kobs at 2500 uM GlcN6P” value: under 1e-05 s⁻¹ for the first, under 1e-05 s⁻¹ for the second.

C8G G29U U69G and C8A U55A C71U cannot be ordered by “self-cleavage kobs at 2500 uM GlcN6P” value: under 1e-05 s⁻¹ for the first, under 1e-05 s⁻¹ for the second.

Compared with G35C A53U G60U C61U, U30A U31G A48C is higher in “self-cleavage kobs at 2500 uM GlcN6P” value: under 1e-05 s⁻¹ for the first, 6.79e-05 ± 1.6e-05 s⁻¹ for the second.

First: A39C U47C U65A
Second: A6G C34U A36C
The “self-cleavage kobs at 2500 uM GlcN6P” value of the first is higher: 9.45e-05 ± 3.8e-05 s⁻¹ for the first, under 1e-05 s⁻¹ for the second.

First: C10G G35U G38A G41U
Second: A42U G43U C50G
The “self-cleavage kobs at 2500 uM GlcN6P” value of the first is lower: under 1e-05 s⁻¹ for the first, 7.64e-05 ± 3.6e-05 s⁻¹ for the second.

G7A G40A A53U and C8U A39U A64U cannot be ordered by “self-cleavage kobs at 2500 uM GlcN6P” value: under 1e-05 s⁻¹ for the first, under 1e-05 s⁻¹ for the second.

A36G G43U C70G and G9C U30A G44U G59U C61U G66C C70U cannot be ordered by “self-cleavage kobs at 2500 uM GlcN6P” value: under 1e-05 s⁻¹ for the first, under 1e-05 s⁻¹ for the second.

Compared with A12G A39G C67A, A42U G44U U65C is lower in “self-cleavage kobs at 2500 uM GlcN6P” value: 0.000177 ± 3.7e-05 s⁻¹ for the first, under 1e-05 s⁻¹ for the second.

First: G9U G38C U54G G62C
Second: G29C U31C C70A
The “self-cleavage kobs at 2500 uM GlcN6P” value of the first is lower: under 1e-05 s⁻¹ for the first, 7.34e-05 ± 3.4e-05 s⁻¹ for the second.

U31C G40U A42U G63C and C8U A12C U30A cannot be ordered by “self-cleavage kobs at 2500 uM GlcN6P” value: under 1e-05 s⁻¹ for the first, under 1e-05 s⁻¹ for the second.

A6G G9C A33U C70U and A48C U49A U55C cannot be ordered by “self-cleavage kobs at 2500 uM GlcN6P” value: under 1e-05 s⁻¹ for the first, under 1e-05 s⁻¹ for the second.

G41A A52C C67G C71A and U31G G40U G60A cannot be ordered by “self-cleavage kobs at 2500 uM GlcN6P” value: under 1e-05 s⁻¹ for the first, under 1e-05 s⁻¹ for the second.

Going from A6U C8U G32A A33G G44A U45G to U31G A39U U55G C71U, the “self-cleavage kobs at 2500 uM GlcN6P” value rises from under 1e-05 s⁻¹ to 0.0043 ± 0.00067 s⁻¹.

U30C G40C G62A and C8A U30C G62A cannot be ordered by “self-cleavage kobs at 2500 uM GlcN6P” value: under 1e-05 s⁻¹ for the first, under 1e-05 s⁻¹ for the second.

C16G G29A G37A U49G C50U and G9U G35A A36G G63U cannot be ordered by “self-cleavage kobs at 2500 uM GlcN6P” value: under 1e-05 s⁻¹ for the first, under 1e-05 s⁻¹ for the second.

G9U G29U G35U G38C U45G U49A and U31A G41U G59U cannot be ordered by “self-cleavage kobs at 2500 uM GlcN6P” value: under 1e-05 s⁻¹ for the first, under 1e-05 s⁻¹ for the second.

G13A G44C U46A A53G and C34A G35U G59U cannot be ordered by “self-cleavage kobs at 2500 uM GlcN6P” value: under 1e-05 s⁻¹ for the first, under 1e-05 s⁻¹ for the second.

First: C8U A36G C50A G51A C68U C70A
Second: G7C G38A U49C A53C C61A
The “self-cleavage kobs at 2500 uM GlcN6P” value of the first is higher: 0.000112 ± 4.4e-05 s⁻¹ for the first, under 1e-05 s⁻¹ for the second.

C16A C34U G51U and U30G G62A A64U C71U cannot be ordered by “self-cleavage kobs at 2500 uM GlcN6P” value: under 1e-05 s⁻¹ for the first, under 1e-05 s⁻¹ for the second.

C10A A33U A48U and A36G G40C G60C cannot be ordered by “self-cleavage kobs at 2500 uM GlcN6P” value: under 1e-05 s⁻¹ for the first, under 1e-05 s⁻¹ for the second.

C8A U31C G38A A64C and U47C A52G G60C U65G C67A cannot be ordered by “self-cleavage kobs at 2500 uM GlcN6P” value: under 1e-05 s⁻¹ for the first, under 1e-05 s⁻¹ for the second.

Compared with C8U C16U G60C C71G, A12G U45A C70G is higher in “self-cleavage kobs at 2500 uM GlcN6P” value: under 1e-05 s⁻¹ for the first, 0.000143 ± 3.9e-05 s⁻¹ for the second.

G7U C16U G29A G60U and G9U A36G C61G C67U cannot be ordered by “self-cleavage kobs at 2500 uM GlcN6P” value: under 1e-05 s⁻¹ for the first, under 1e-05 s⁻¹ for the second.

A36U G40U G62C G66C and C10U C11A A12G G41C cannot be ordered by “self-cleavage kobs at 2500 uM GlcN6P” value: under 1e-05 s⁻¹ for the first, under 1e-05 s⁻¹ for the second.

G38A A42C U56G and G7C C50U C67A cannot be ordered by “self-cleavage kobs at 2500 uM GlcN6P” value: under 1e-05 s⁻¹ for the first, under 1e-05 s⁻¹ for the second.

Going from A14U G40A G43A U45G to U30G A42C A52C G60U, the “self-cleavage kobs at 2500 uM GlcN6P” value falls from 0.000402 ± 8.4e-05 s⁻¹ to under 1e-05 s⁻¹.

C10U A12U A53U and G38A C58A C70G are within error of each other in “self-cleavage kobs at 2500 uM GlcN6P” value: 4.13e-05 ± 1.7e-05 s⁻¹ for the first, 6.46e-05 ± 1.7e-05 s⁻¹ for the second.

Going from A39G G44U A53G to G35C U46A C67G, the “self-cleavage kobs at 2500 uM GlcN6P” value falls from 0.000722 ± 0.00021 s⁻¹ to under 1e-05 s⁻¹.

First: G7C U30A G44A
Second: A15G C58U C70U
The “self-cleavage kobs at 2500 uM GlcN6P” value of the first is lower: under 1e-05 s⁻¹ for the first, 3.63e-05 ± 1.4e-05 s⁻¹ for the second.

Going from G32U A39C to A33G A53C C58A, the “self-cleavage kobs at 2500 uM GlcN6P” value falls from 4.98e-05 ± 1.5e-05 s⁻¹ to under 1e-05 s⁻¹.

First: A12C U55A U69C
Second: G35A A48C G51A U56G
The “self-cleavage kobs at 2500 uM GlcN6P” value of the first is higher: 0.000484 ± 0.00011 s⁻¹ for the first, under 1e-05 s⁻¹ for the second.

Going from C10G A12U C50G to C8U A48U G60C, the “self-cleavage kobs at 2500 uM GlcN6P” value falls from 0.000103 ± 2.4e-05 s⁻¹ to under 1e-05 s⁻¹.

Going from G7U C34U G60U A64G to C11G G29U C50U C67U, the “self-cleavage kobs at 2500 uM GlcN6P” value rises from under 1e-05 s⁻¹ to 0.0015 ± 0.00049 s⁻¹.

C58U A64U C67G and A14G C34U G35A G43C cannot be ordered by “self-cleavage kobs at 2500 uM GlcN6P” value: under 1e-05 s⁻¹ for the first, under 1e-05 s⁻¹ for the second.

First: A39U U46G U56G
Second: A12U G41U A42G G51C
The “self-cleavage kobs at 2500 uM GlcN6P” value of the first is higher: 0.000873 ± 0.00027 s⁻¹ for the first, under 1e-05 s⁻¹ for the second.

C8A C34A U69C was tested, and the “self-cleavage kobs at 2500 uM GlcN6P” value was under 1e-05 s⁻¹.

Variants of: B1
Assay: self-cleavage kobs at 10000 uM GlcN6P; higher = faster cleavage; RNA array
Conditions: with glucosamine-6-phosphate
Summary of the method: as §1

First: A39G G44U A53G
Second: G32U A39C
The “self-cleavage kobs at 10000 uM GlcN6P” value of the first is 13-fold higher: 0.000935 ± 0.00017 s⁻¹ for the first, 7.09e-05 ± 1.1e-05 s⁻¹ for the second.

C8U A48U G60C and G7U C34U G60U A64G cannot be ordered by “self-cleavage kobs at 10000 uM GlcN6P” value: under 1e-05 s⁻¹ for the first, under 1e-05 s⁻¹ for the second.

A12U G41U A42G G51C and C8A C34A U69C cannot be ordered by “self-cleavage kobs at 10000 uM GlcN6P” value: under 1e-05 s⁻¹ for the first, under 1e-05 s⁻¹ for the second.
